{"source": "patent US20250215103A1", "about": "(Hoffmann-La Roche, published 2025)", "test_in_all_cases": "cell-based or functional assay", "key": {"[1]": {"target": "T1, human PD1 on cells (Jurkat cells expressing human PD1; activated human T cells) (human, UniProt Q15116 25-288)", "T1 sequence (Q15116 25-288 limits assumed)": "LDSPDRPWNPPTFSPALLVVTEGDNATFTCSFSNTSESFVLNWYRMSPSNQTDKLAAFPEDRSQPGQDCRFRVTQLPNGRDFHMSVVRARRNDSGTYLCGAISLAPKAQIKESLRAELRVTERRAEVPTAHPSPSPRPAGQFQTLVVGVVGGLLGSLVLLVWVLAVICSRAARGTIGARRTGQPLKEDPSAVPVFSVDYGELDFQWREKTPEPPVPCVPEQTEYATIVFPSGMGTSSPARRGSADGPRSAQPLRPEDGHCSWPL"}, "[2]": {"target": "T1, human PD1 on cells (Jurkat cells …)", "remark": "listed apart in the source"}, "[3]": {"target": "T1, human PD1 on cells (Jurkat cells …)", "remark": "listed apart in the source"}}, "data": [{"binder": "bispecific CrossMab 8012 (PD1-0103-0312/51A165) (bispecific antibody, human IgG1, kappa, L234A L235A) heavy 1: EVQLQQSGPELVKPGASVKMSCKASGYTFTSYVMHWVKQKPGQGLEWIGYVNPYNDDTKYNEKFRGKATLTSDKSSSTAYMELSSLTSEDSAVYYCARSYYYYSMDNWGQGTSVTVSSASTKGPSVFPLAPSSKSTSGGTAALGCLVEDYFPEPVTVSWNSGALTSGVHTFPAVLQSSGLYSLSSVVTVPSSSLGTQTYICNVNHKPSNTKVDEKVEPKSCDKTHTCPPCPAPEAAGGPSVFLFPPKPKDTLMISRTPEVTCVVVDVSHEDPEVKFNWYVDGVEVHNAKTKPREEQYNSTYRVVSVLTVLHQDWLNGKEYKCKVSNKALGAPIEKTISKAKGQPREPQVCTLPPSRDELTKNQVSLSCAVKGFYPSDIAVEWESNGQPENNYKTTPPVLDSDGSFFLVSKLTVDKSRWQQGNVFSCSVMHEALHNHYTQKSLSLSP light 1: QIVLTQSPAIMSASPGEKVTVTCSASSSIRYMHWYQQKPGTSPKRWIYDTSELASGVPARFSGSGSGTSYSLTINSMEAEDAATYYCHQRSSYPFTFGGGTKLEIKRTVAAPSVFIFPPSDRKLKSGTASVVCLLNNFYPREAKVQWKVDNALQSGNSQESVTEQDSKDSTYSLSSTLTLSKADYEKHKVYACEVTHQGLSSPVTKSFNRGEC heavy 2: not shown light 2: EVQLLESGGGLVQPGGSLRLSCAASGFSFSSYTMSWVRQAPGKGLEWVATISGGGRDIYYPDSVKGRFTISRDNSKNTLYLQMNSLRAEDTAVYYCVLLTGRVYFALDSWGQGTLVTVSSASVAAPSVFIFPPSDEQLKSGTASVVCLLNNFYPREAKVQWKVDNALQSGNSQESVTEQDSKDSTYSLSSTLTLSKADYEKHKVYACEVTHQGLSSPVTKSFNRGEC", "values": [{"measurement": "EC50 (pM) of Granzyme B production, mMLR", "setting": "[1]", "result": 34, "unit": "pM"}, {"measurement": "Fold activity vs. control (EC50 of Granzyme B, mMLR), control PD1-0103-312", "setting": "[2]", "result": 3.82, "unit": "fold vs PD1-0103-312"}, {"measurement": "Fold activity vs. control (EC50 of Granzyme B, mMLR), control 8014", "setting": "[3]", "result": 1560, "unit": "fold vs 8014"}]}, {"binder": "control 2+1 CrossMab 8159 (PD1-0103-0312/Nada TCB-format) (bispecific antibody, human IgG1, kappa, L234A L235A) light 1: EVQLLESGGGLVQPGGSLRLSCAASGFSFSSYTMSWVRQAPGKGLEWVATISGGGRDIYYPDSVKGRFTISRDNSKNTLYLQMNSLRAEDTAVYYCVLLTGRVYFALDSWGQGTLVTVSSASVAAPSVFIFPPSDEQLKSGTASVVCLLNNFYPREAKVQWKVDNALQSGNSQESVTEQDSKDSTYSLSSTLTLSKADYEKHKVYACEVTHQGLSSPVTKSFNRGEC light 2: DIQMTQSPSSLSASVGDRVTITCRASQDVGSGVAWYQQKPGKAPKLLIGSASGLYSGVPSRFSGSRSGTDFTLTISSLQPEDFATYYCQQSASGGSTFGQGTKVEIKRTVAAPSVFIFPPSDRKLKSGTASVVCLLNNFYPREAKVQWKVDNALQSGNSQESVTEQDSKDSTYSLSSTLTLSKADYEKHKVYACEVTHQGLSSPVTKSFNRGEC heavy 1: DIVMTQSPDSLAVSLGERATINCKASESVDTSDNSFIHWYQQKPGQSPKLLIYRSSTLESGVPDRFSGSGSGTDFTLTISSLQAEDVAVYYCQQNYDVPWTFGQGTKVEIKSSASTKGPSVFPLAPSSKSTSGGTAALGCLVKDYFPEPVTVSWNSGALTSGVHTFPAVLQSSGLYSLSSVVTVPSSSLGTQTYICNVNHKPSNTKVDKKVEPKSCDGGGGSGGGGSEVQLVESGGGLVQPGGSLRLSCAASGFSIAGTAIHWVRQAPGKGLEWVASISPGGGSTAYADSVKGRFTISADTSKNTAYLQMNSLRAEDTAVYYCSRSGGSGASAMDYWGQGTLVTVSSASTKGPSVFPLAPSSKSTSGGTAALGCLVEDYFPEPVTVSWNSGALTSGVHTFPAVLQSSGLYSLSSVVTVPSSSLGTQTYICNVNHKPSNTKVDEKVEPKSCDKTHTCPPCPAPEAAGGPSVFLFPPKPKDTLMISRTPEVTCVVVDVSHEDPEVKFNWYVDGVEVHNAKTKPREEQYNSTYRVVSVLTVLHQDWLNGKEYKCKVSNKALGAPIEKTISKAKGQPREPQVCTLPPSRDELTKNQVSLSCAVKGFYPSDIAVEWESNGQPENNYKTTPPVLDSDGSFFLVSKLTVDKSRWQQGNVFSCSVMHEALHNHYTQKSLSLSP heavy 2: not shown", "values": [{"measurement": "EC50 (pM) of Granzyme B production, mMLR", "setting": "[1]", "result": 117, "unit": "pM"}]}]}
